Measured values: publication PMC4199108 (Nature Communications, 2014)
Residues, ends and D or L forms follow the SMILES beside them.

What was measured:
[1] = target: T1, phosphorylated rhodopsin (Meta II) (Bos taurus, UniProt P02699); assay: Extra Meta II assay: stabilization of Meta II by peptide, UV-visible absorption; assay type: binding, bovine; settings: 10 μM ROS-P, 100 mM HEPES pH 8.0, 0 °C, 380-nm absorbance
[2] = target: phosphorylated opsin (OpsP) (Bos taurus, UniProt P02699); assay type: binding, bovine; settings: 1 μM arrestin A366NBD + 2 μM OpsP, 50 mM HEPES pH 7.0, 22 °C
Sequence of phosphorylated opsin (OpsP) (P02699 whole entry): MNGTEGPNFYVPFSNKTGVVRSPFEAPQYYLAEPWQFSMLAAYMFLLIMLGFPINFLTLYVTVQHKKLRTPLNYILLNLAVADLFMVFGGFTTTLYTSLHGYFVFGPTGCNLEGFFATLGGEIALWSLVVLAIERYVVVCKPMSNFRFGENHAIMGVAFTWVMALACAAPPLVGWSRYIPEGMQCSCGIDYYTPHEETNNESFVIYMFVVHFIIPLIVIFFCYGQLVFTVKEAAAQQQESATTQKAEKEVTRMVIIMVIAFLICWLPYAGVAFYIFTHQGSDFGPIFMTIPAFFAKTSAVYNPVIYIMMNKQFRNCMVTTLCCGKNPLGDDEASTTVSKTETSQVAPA

[3] = target: phosphorylated opsin (OpsP) in membranes (bovine, UniProt P02699 1-348, phosphorylated by native rhodopsin kinase (sites not given)); assay: co-sedimentation
Sequence of phosphorylated opsin (OpsP) in membranes (P02699 whole entry): as above

[4] = target: T1, phosphorylated rhodopsin (Meta II); settings: 380-nm-absorbing Meta II; cited from earlier work

T1 sequence (P02699 whole entry): as above

For QRMHLRQYELL [GsαCT], the “Stabilization of Meta II / Extra Meta II formation (in words)” value [1] was “did not stabilize Meta II” and the “Competition for arrestin binding to phosphorylated opsin (in words)” value [2] was “showed no competition for arrestin binding to phosphorylated opsin”.

In the case of `CC[C@H](C)[C@H](NC(=O)[C@H](CC(=O)O)NC(=O)[C@H](CCC(=O)O)NC(=O)[C@H](CCC(N)=O)NC(=O)CNC(=O)[C@@H](N)Cc1ccc(O)cc1)C(=O)N[C@@H](CC(=O)O)C(=O)N[C@H](C(=O)N[C@@H](CCSC)C(=O)NCC(=O)N[C@@H](CC(C)C)C(=O)O)C(C)C` [ArrFL-1] (H-YGQEDIDVMGL-OH), the “Stabilization of Meta II / Extra Meta II formation (in words)” value [1] is reported as “stabilized the 380-nm-absorbing Meta II species over Meta I”.

YGQEDIDVMGL [ArrFL-1, peptide analogue of the finger loop of rod photoreceptor arrestin] showed a Kd [3] of 1.7 mM.

Work on YGREDLDVLGL [ArrFL-2/3, finger loop peptide of beta-arrestin-1 and beta-arrestin-2] yielded a Kd [3] of 2.4 mM.

With IKENLKDCGLF [GtαCT, wild-type Gtα C-terminal peptide] the Kd [3] was 0.88 mM.

With ILENLKDCGLF [GtαCT-HA, high-affinity version of the Gtα C-terminal peptide] the Kd [3] was 0.32 mM.

B1: arrestin: full-length rod photoreceptor arrestin (protein)
chain: MKANKPAPNHVIFKKISRDKSVTIYLGKRDYIDHVERVEPVDGVVLVDPELVKGKRVYVSLTAAFRYGQEDIDVMGLSFRRDLYFSQVQVFPPVGASGATTRLQESLIKKLGANTYPFLLTFPDYLPSSVMLQPAPQDVGKSAGVDFEIKAFATHSTDVEEDKIPKKSSVRLLIRKVQHAPRDMGPQPRAEASFQFFMSDKPLRLAVSLSKEIYYHGEPIPVTVAVTNSTEKTVKKIKVLVEQVTNVVLYSSDYYIKTVAAEEAQEKVPPNSSLTKTLTLVPLLANNRERRGIALDGKIKHEDTNLASSTIIKEGIDKTVMGILVSYQIKVKLTVSGLLGELTSSEVATEVPFRLMHPQPEDPDTCKESFQDENFVFEEFARQNLKDAGEYKEEKTDQEAAMDE
modifications: NBD label on the single cysteine A366C
In the case of B1, the “Stabilization of Meta II species over Meta I” value [4] is given as “stabilized the 380-nm-absorbing Meta II species over Meta I”.
